From the supplement of paper PMC11316812
± gives the standard deviation of the averaged measurements.

Assays:
hTERT-HMEC = assay: percentage of EdU-negative (G0-arrested) nuclei per well, 72 h; higher = more G0 arrest; conditions: reference: sequence is the full UniProt precursor, the tested protein was the secreted form or ectodomain
MCF7 = assay: as above; conditions: reference: sequence is the full UniProt precursor, the tested protein was the secreted form or ectodomain
[1] = protein concentration 0.0328571 µM
[2] = protein concentration 0.328571 µM
[3] = protein concentration 0.0225 µM
[4] = protein concentration 0.02117 µM
[5] = protein concentration 0.2117 µM
[6] = protein concentration 0.0153175 µM
[7] = protein concentration 0.153175 µM
[8] = protein concentration 0.01025 µM
[9] = protein concentration 0.1025 µM
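Further: secreted proteins added to cultured cells, EdU pulse at the end, nuclei found by Hoechst imaging, EdU status from nuclear versus surrounding ring intensity ratio, PBS as neutral control.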

Row | Sequence | percentage of EdU-negative (hTERT-HMEC; [3]) | percentage of EdU-negative (hTERT-HMEC; protein concentration 0.225 µM) | percentage of EdU-negative (MCF7; [3]) | percentage of EdU-negative (MCF7; protein concentration 0.225 µM) | further results
1 | MSMLVVFLLLWGVTWGPVTEAAIFYETQPSLWAESESLLKPLANVTLTCQAHLETPDFQLFKNGVAQEPVHLDSPAIKHQFLLTGDTQGRYRCRSGLSTGWTQLSKLLELTGPKSLPAPWLSMAPVSWITPGLKTTAVCRGVLRGVTFLLRREGDHEFLEVPEAQEDVEATFPVHQPGNYSCSYRTDGEGALSEPSATVTIEELAAPPPPVLMHHGESSQVLHPGNKVTLTCVAPLSGVDFQLRRGEKELLVPRSSTSPDRIFFHLNAVALGDGGHYTCRYRLHDNQNGWSGDSAPVELILSDETLPAPEFSPEPESGRALRLRCLAPLEGARFALVREDRGGRRVHRFQSPAGTEALFELHNISVADSANYSCVYVDLKPPFGGSAPSERLELHVDGPPPRPQLRATWSGAVLAGRDAVLRCEGPIPDVTFELLREGETKAVKTVRTPGAAANLELIFVGPQHAGNYRCRYRSWVPHTFESELSDPVELLVAES |  |  |  |  | percentage of EdU-negative (hTERT-HMEC; [1]): 5.27 ± 0.37%; percentage of EdU-negative (hTERT-HMEC; [2]): 10.2 ± 0.85%; percentage of EdU-negative (MCF7; [1]): 24.5 ± 4.7%; percentage of EdU-negative (MCF7; [2]): 27.1 ± 2.2%
2 | MSMSPTVIILACLGFFLDQSVWAHVGGQDKPFCSAWPSAVVPQGGHVTLRCHYRRGFNIFTLYKKDGVPVPELYNRIFWNSFLISPVTPAHAGTYRCRGFHPHSPTEWSAPSNPLVIMVTGLYEKPSLTARPGPTVRAGENVTLSCSSQSSFDIYHLSREGEAHELRLPAVPSINGTFQADFPLGPATHGETYRCFGSFHGSPYEWSDPSDPLPVSVTGNPSSSWPSPTEPSFKTGIARHLHAVIRYSVAIILFTILPFFLLHRWCSKKKDAAVMNQEPAGHRTVNREDSDEQDPQEVTYAQLDHCIFTQRKITGPSQRSKRPSTDTSVCIELPNAEPRALSPAHEHHSQALMGSSRETTALSQTQLASSNVPAAGI | 5.29 ± 1.2% | 4.83 ± 0.51% | 24.4 ± 3.2% | 25.68 ± 0.13% | 
3 | MSNTQAERSIIGMIDMFHKYTRRDDKIEKPSLLTMMKENFPNFLSACDKKGTNYLADVFEKKDKNEDKKIDFSEFLSLLGDIATDYHKQSHGAAPCSGGSQ | 5.43 ± 0.67% | 5.53 ± 0.45% | 23.5 ± 2.3% | 26.5 ± 2.3% | 
4 | MSPHLTALLGLVLCLAQTIHTQEGALPRPSISAEPGTVISPGSHVTFMCRGPVGVQTFRLEREDRAKYKDSYNVFRLGPSESEARFHIDSVSEGNAGLYRCLYYKPPGWSEHSDFLELLVKESSGGPDSPDTEPGSSAGTVPGTEASGFDAP [Q6ISS4] | 4.81 ± 0.34% | 6.43 ± 0.35% | 24.7 ± 0.63% | 27.9 ± 3.5% | 
5 | MSPHPTALLGLVLCLAQTIHTQEEDLPRPSISAEPGTVIPLGSHVTFVCRGPVGVQTFRLERDSRSTYNDTEDVSQASPSESEARFRIDSVREGNAGLYRCIYYKPPKWSEQSDYLELLVKESSGGPDSPDTEPGSSAGPTQRPSDNSHNEHAPASQGLKAEHLYILIGVSVVFLFCLLLLVLFCLHRQNQIKQGPPRSKDEEQKPQQRPDLAVDVLERTADKATVNGLPEKDRETDTSALAAGSSQEVTYAQLDHWALTQRTARAVSPQSTKPMAESITYAAVARH [Q6GTX8] | 5.38 ± 0.85% | 5.62 ± 0.45% | 23.2 ± 1.6% | 24.29 ± 0.027% | 
6 | MSPLLRRLLLAALLQLAPAQAPVSQPDAPGHQRKVVSWIDVYTRATCQPREVVVPLTVELMGTVAKQLVPSCVTVQRCGGCCPDDGLECVPTGQHQVRMQILMIRYPSSQLGEMSLEEHSQCECRPKKKDSAVKPDRAATPHHRPQPRSVPGWDSAPGAPSPADITHPTPAPGPSAHAAPSTTSALTPGPAAAAADAAASSVAKGGA |  |  |  |  | percentage of EdU-negative (hTERT-HMEC; [4]): 4.57 ± 0.19%; percentage of EdU-negative (hTERT-HMEC; [5]): 6.4 ± 1.3%; percentage of EdU-negative (MCF7; [4]): 25 ± 0.51%; percentage of EdU-negative (MCF7; [5]): 26.88 ± 0.25%
7 | MSPNFKLQCHFILIFLTALRGESRYLELREAADYDPFLLFSANLKRELAGEQPYRRALRCLDMLSLQGQFTFTADRPQLHCAAFFISEPEEFITIHYDQVSIDCQGGDFLKVFDGWILKGEKFPSSQDHPLPSAERYIDFCESGLSRRSIRSSQNVAMIFFRVHEPGNGFTLTIKTDPNLFPCNVISQTPNGKFTLVVPHQHRNCSFSIIYPVVIKISDLTLGHVNGLQLKKSSAGCEGIGDFVELLGGTGLDPSKMTPLADLCYPFHGPAQMKVGCDNTVVRMVSSGKHVNRVTFEYRQLEPYELENPNGNSIGEFCLSGL |  |  |  |  | percentage of EdU-negative (hTERT-HMEC; [6]): 5.2 ± 0.25%; percentage of EdU-negative (hTERT-HMEC; [7]): 6.58 ± 0.22%; percentage of EdU-negative (MCF7; [6]): 25.7 ± 1.4%; percentage of EdU-negative (MCF7; [7]): 28.3 ± 0.6%
8 | MSPSPTALFCLGLCLGRVPAQSGPLPKPSLQALPSSLVPLEKPVTLRCQGPPGVDLYRLEKLSSSRYQDQAVLFIPAMKRSLAGRYRCSYQNGSLWSLPSDQLELVATGVFAKPSLSAQPGPAVSSGGDVTLQCQTRYGFDQFALYKEGDPAPYKNPERWYRASFPIITVTAAHSGTYRCYSFSSRDPYLWSAPSDPLELVVTGTSVTPSRLPTEPPSPVAEFSEATAELTVSFTNEVFTTETSRSITASPKESDSPAGPARQYYTKGNLVRICLGAVILIILAGFLAEDWHSRRKRLRHRGRAVQRPLPPLPPLPLTRKSNGGQDGGRQDVHSRGLCS [Q9HCN6] | 4.56 ± 0.87% | 5.35 ± 0.6% | 24.78 ± 0.15% | 24.9 ± 1.1% | 
9 | MSRELAPLLLLLLSIHSALAMRICSFNVRSFGESKQEDKNAMDVIVKVIKRCDIILVMEIKDSNNRICPILMEKLNRNSRRGITYNYVISSRLGRNTYKEQYAFLYKEKLVSVKRSYHYHDYQDGDADVFSREPFVVWFQSPHTAVKDFVIIPLHTTPETSVKEIDELVEVYTDVKHRWKAENFIFMGDFNAGCSYVPKKAWKNIRLRTDPRFVWLIGDQEDTTVKKSTNCAYDRIVLRGQEIVSSVVPKSNSVFDFQKAYKLTEEEALDVSDHFPVEFKLQSSRAFTNSKKSVTLRKKTKSKRS |  |  |  |  | percentage of EdU-negative (hTERT-HMEC; [8]): 4.824 ± 0.022%; percentage of EdU-negative (hTERT-HMEC; [9]): 5.74 ± 0.076%; percentage of EdU-negative (MCF7; [8]): 28.5 ± 1.3%; percentage of EdU-negative (MCF7; [9]): 27 ± 2%
10 | MSRGLQLLLLSCAYSLAPATPEVKVACSEDVDLPCTAPWDPQVPYTVSWVKLLEGGEERMETPQEDHLRGQHYHQKGQNGSFDAPNERPYSLKIRNTTSCNSGTYRCTLQDPDGQRNLSGKVILRVTGCPAQRKEETFKKYRAEIVLLLALVIFYLTLIIFTCKFARLQSIFPDFSKAGMERAFLPVTSPNKHLGLVTPHKTELV | 4.68 ± 0.067% | 8.57 ± 0.3% | 25.6 ± 5.2% | 25.7 ± 2.3% | 
